Assay results taken from US20210302442A1 (MAX DELBR CK CENTRUM F R MOLEKULARE MEDIZIN IN DER …, published 2021).

Target: the molecule itself
Experiment: AFM of spontaneously formed aggregates (self-assembly)

B1: Ex1Q48 (other)
chain: MATLEKLMKAFESLKSFQQQQQQQQQQQQQQQQQQQQQQQQQQQQQQQQQQQQQQQQQQQQQQQQPPPPPPPPPPPQLPQPPPQAQPLLPQLQPPPPPPPPPPGPAAAEEPLHRP
notes: also called HTTEx1Q48; HTTex1Q48
binding result: binds
